Data: the RNAGym collection of RNA variant scans (doi:10.1073/pnas.2313332121)

B1: TPR t1 (parent)
chain: GACCAAUCUGCCCUCAGAGCUCGAGAACAUCUUCGGAUGCAGAGGAGGCAGGCUUCGGUGGCGCGAUAGCGCCAACGUCCUCAACCUCCAAUGCAUCCCACCACAUGAUGAUGCCUGAAGAGCCUUGGUUUUUUG

Variants of: B1
Test: polymerase ribozyme fitness, log enrichment relative to wild type (log ratio); higher = more active; in vitro selection for triplet polymerase activity
Outline: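 For each subunit of a heterodimeric triplet polymerase ribozyme, a mutant library was built by PCR and transcribed, then taken through a single in vitro selection round in triplicate. Selection involved annealing to a biotinylated primer, the partner subunit and triplets, incubation frozen at −7 °C, gel excision of extended constructs, capture on streptavidin beads and RT-PCR. Genotypes were retained after Illumina sequencing of inputs and outputs only with ≥10 input reads and ≥1 read in each output. Fitness is defined as the logarithm of a genotype's enrichment relative to wild-type enrichment, using inverse-variance-weighted averages across replicates, with the logarithm taken to base 2.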

Variant	polymerase ribozyme fitness (log ratio)
C98A A121U	-2.52
C99U A119U U130A	-3.7
C97U C123A	0.00246
A105C G110A C115U A119G	-6.05
C102U C123A	-2.63
C102U C123U	-0.21
C102G C104U	-6.12
C99G C124U	-6.43
U106A U116C	-0.567
U109A C124U	-4.15
G110A C114A	-6.15
C99A	-6.24
C99U	-3.02
C99G	-7.03
C97U A105C	-4.58
C101A U130G	-2.8
A100C A121C	0.337
A100U G110A	-1.52
C102A U112A C115A U116G C124G U133C	-3.77
G107U G113U	-6.69
C98A A118U	-4.71
C101U G128C	-2.13
C104U A118G	0.462
C98U U106A G110U G120C	-2.16

Variant	polymerase ribozyme fitness (log ratio)
C104A C114A	-4.74
U96G A111U	-4.9
C98U C99A A118U U130C	-5.55
U106G G117U	-4.18
C99U U112C G117A G128A	-5.01
C102U A119U C123A U126A	-2.22
C102U C114G	-4.58
C102U C114A	-3.75
A105C U112C	0.139
C101G U133A	-1.55
C101A A105G	-3.13
C98U G113U	-3.5
A105C G117A	-5.32
U109A U134G	-5.32
C101A U112A	0.611
C102A U125C	-4.05
G107A G117A	-5.11
G107A U130G	-6.83
A103U G127U U129G	-3.98
G107A U132A	-5.08
A103C	-5.01
A103G	-3.07
A103U	-4.71
C99U G110A	-5.27

Variant	polymerase ribozyme fitness (log ratio)
A100U G117U	-3.66
C101U U126G	-2.48
C102A U106G	-4.52
A105U G127C	-2.7
C104U C123A U125G	1.28
G107A A121C	-3.64
C99A A103C C104A	-4.54
C101A G110U	-3.04
A100C U106A	-0.525
C102A C124A U130A	-0.438
C102G	-5.93
C102A	-1.87
C102U	-1.71
C99U C115U	-4.48
A103U A111G	-3.31
U106G G107A U133A	-5.4
A105U U125A	-2.77
A100U G120U	-1.23
A103U G110C	-7.11
C104A G113C	-4.17
C102U U130G	-2.52
A105U C115U	-1.94
C97A U125A	-5.2
C101A G110U A119G	-2.89

Variant	polymerase ribozyme fitness (log ratio)
U106G U130G	-1.21
A105C G120U	-2.25
A105C G120C	-1.78
A100C U130C	-0.362
C97U U116C	-0.713
U109C U130C	-5.04
A108G G120A C124G U131G	-0.578
C102U G120A	-1.2
A105G G113U	-5.05
C99U U133G	-2.59
A105U U112C	-1.65
C97U C101U C102A	-4.12
U109C A121G C124A G127C	-3.66
C104U G117U	-0.481
C99U A121U	-0.669
C102U G122A	-2.08
C98A U112A	-3.24
C101U G120C	-0.354
C101U G120U	-1.36
C102U C124A	-0.401
C102U C124G	0.125
C102A U106A C115A U129A	-4.5
A105C G128C	-3.71
C101A U109A	-5.05

Variant	polymerase ribozyme fitness (log ratio)
C104A G127A	-3.1
A105C U116C	-4.81
A100U G113U C124U	-3.92
C101U G117U	-1.13
C97G C115G G120C	-5.54
C102G U106C C114G C123A	-6.08
U106A C114G U133C	-2.16
C98U G120A	-0.67
A105C U130C	-1.55
C98U A111C	-2.13
U106A U109C	-3.27
A105U U133A	-1.78
C101A G107A	-5.93
C97U C101A G122C C123A U125A	-1.66
U106A C114A	-1.93
U109C U126A	-4.99
U106G U133G	-0.611
U109C A111C	-3.65
C99U G113A G117A	-5.78
C98G G135U	-6.54
C99A G127A	-5.8
U96C C123A	1.12
A105C C114A A121G	-3.08
C104A A118U U125G U130A	-3.67

Variant	polymerase ribozyme fitness (log ratio)
A100U U116C G128U U130A	-5.48
C101G G110A	-4.15
U96G C123G	1.1
U109A C115G	-7.19
C104A C123A	-1.7
C104A C123G	-0.779
C101A C115G U132C	-3.46
U106C C114A G120C	-2.21
U106G C123G C124G	1.38
C101G G120U U129A	-3.12
U96C U133A	-0.456
C97U C104U A111U C124A	-2.15
C101U C102G	-6.19
C104A A119U	-2.35
C102A U109C	-6.22
C97A G117U	-5.67
C97A C123U	-2.71
A108G U125G	-2.24
C98A C124A	-2.34
C97U U109A	-2.09
C98U U126C	-1.99
C97U G120U	-0.768
C97U G120A	0.391
C97U G120C	0.554

Variant	polymerase ribozyme fitness (log ratio)
C104U C123G	1.92
U106A U125G	-0.507
A108G A111C	-1.58
A105G U109A	-5.94
A105C A121G	0.5
C101U G113A	-1.2
C101A C102A A119U U130A	-5.43
U106G U112A G120C	-3.09
A103C A111U U116C	-4.99
C97G C101U A121C	-2.97
C101A G113U	-3.79
A108C C123A	-4.12
U109C C115A	-3.11
C102A C124G	0.0453
C101G G135U	-2.44
A100C C102U	-5.66
A100C C102G	-4.98
C97G A111C	-4.02
C101A A121U	-0.684
U106A G117U	-2.19
C97U C124G	1.72
U96C C114U	-2.44
U96C C114G	-2.45
